Measured values from a protein production outcome set (Wang et al. 2014).

Experiment: label from the status in PepcDB records
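Note: failed if final PepcDB status was selected cloned or expressed and not failed if soluble or beyond.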

MFTESSPAMDPDLPESETRPEFNPSSTDSTAMAESTDAGEPTAFELASSQVTSVADLPPERFNSLDELTHDLGSLHELSTRGSWQAILEKISQARALFLLTKPHEHLTYLTYQVMALAKLRRSDEASHELNSLHDFDGTHYRYESFPEIYPNRRGSMVPFSLRWLYALIPTKLGNRQEGLDRLYVLLDFVRDRIREKESQSLESSVELWKKRETFVMNCLLGFHLGHKEFGVSLDLMKELINRDPLDPVLISKLGSVQMQFGDVEGAKTTFDRVEKMLNEGKSNGLLNEIQFNNLVGRNKALVYVVAKDYVSAVREYDKCIERDNSDIIAVNNKALCLMYLRDLSDAIKVMESALERVPTAALNESLVVNLCSMYELAYVNHTDVKRTLNNWIARVAPDDFDSSCTRV
protein production: failed

MSEALSDSGLPPVQRVVTGHDAHGRAVFKSEDVTPTRMIPSGDASFLLVWTTATVPADNNDETDGRQREAGLTLDGGSVIRVVDMLPGKESPMHRTNSIDYGIVLEGEIELELDDGAKRTVRQGGIIVQRGTNHLWRNTTDKPCRIAFILIEAPAYLHNGQPLPEDKPDHK
protein production: not failed

MKQEETKRYESFKREFFHWFLAFSGDEPFSVAAGELLMMLKEELALQQAVLYLFDPSCDAFCPEAAAGRMPAAESIVAEEKQEIVVIDDGGPCIVVRLFFLLSEETRAMLELMYGKERHIDREWLKVLRTDLSSLFRKLSALSQRTSEENRYEQLHRFAAKIHSTMQIDDVLEEIICTLQNVYPAFTYHLLLSHDNHVCGNLPIKTLALDESEGQPAALRAFLTGQVQCEETAAPPRSVLYAPIKGVQAVYGVIQIIAPYAAPFPKREINFISLLAGTAGRALENAKLYEQSRRLVADLQLINDTMRQLNARPRLCEAIEYMVSQIKESFGADEVGFFLFADGKRELLRGSTPFFYNDLSALYVEWVEARLLSGNDILFAGDVRTSDFGPFRSIMAAPMMQNKEMKGVCIVLAYETYRFTFEMFKLLQSLVQHSTLAFMNAILREELEKLVVTDYLTKLYTRRYLDEAIQKSMEEDALGSFLLIDIDNFKQINDTYGHQTGDDVLVQVAKMIRTNIRDGDIAARWGGEELAVYLPKVALLDAIAIARRIVEKVREHTVPSVTVSCGLSSWRRHDHDDAEQLFKRADAALYMAKETGKNAIFVHDGDHLYRG
protein production: failed

MELLCIDYLGKPLRLEGTMAGWQQLFWDNILVAQRPAQEQYEGDIQHHFQLTQGEHVLECCLEIALTWQPFQLQYQTKLNGELVAQGMRSEKDVERQTPYEAPKVERRFSVIGLVSLAMKALKSAKMIKVVMASASLAAYSWLFSFQFALALIGCLVFHEYGHVRAMKYFGMKTKGIYLVPFLGGLALSDEKINTRWQDVVISIMGPCFGFLLSLLLVGVYWVTDSPFWAALAVFNAFLNLFNLLPVLPLDGGHILKSVSFSMNSKMGVILCVLAILGGIALSYSLGLTLFGFLLLMGALDIVFEWRQRHHSHLLPLNRYAQMVSTIWYFALVSGLIAIIIGFASTGDTLLSLPLLILGT
protein production: failed

MIGDMNELLLKSVEVLPPLPDTVSKLRKYVSEANSNIETMKVAEIISSDPLMTAKLLQLANSPYYGFTREITTINQVITLLGVGNIINIVMADSIRDNFKIDVSPYGLNTQNFLKTCNEEATFIANWLNDEDKKLSHLLVPCAMLLRLGIVIFSNFLIQNHKDKDFLAFLNKNENLALAENEFLGVDHISFLGFLLHRWNFDDVLIESICFVRTPHAAREKVKKSAYALAITDHLFAPHDGSSPFNAKAAVALLKEAKTQGINFDLNNLLSKLPNKAKENLNKED
protein production: not failed

MFGISISSAILHFVIGGFAVALASIMADKVGGKLGGIIATMPAVYLAAIIALAIDHKGQQLIQMSIHLSTGAIVGIVSCIVTVFFTSIFIGKKNYRSGTVFAILCWFVISVAIFLVRHI
protein production: failed

MTKAMTAHDYLPLIEKIRKRISSWTGRFLSYCGRLQLIKSVLMSITNFWSSAFRLPGNCMKEIERLCSAFLWSGPDLKTHNAKIAWSKVCLPMCEGGLGLRPLKEINTVCGLKLIWRLLASQTSLWGQWVQTYLIRRNNFWAIKASSYQGSWMWRKLLTLRDVARSFHKKEIHNGRNTSFWYDHWSSMGTLVDVLGARGCIDLGITTTTNMENVFTTRRSRKHRGDLLVRIEAEIEAAKTRHQPDIEDIDLWKPSTGYKKTFSTRETWKLIRMAEPVCEWAKGVWFPKPHQNLLSLLGWVCTIVFQQGTECKSGTAKLTLLAFSAKTLWKQEITYSSTVTTPIKFGKL
protein production: failed

MNIRRARPDDLMNMQHCNLLCLPENYQMKYYFYHGLSWPQLSYIAEDEDGKIVGYVLAKMEEDPDDVPHGHITSLAVKRSHRRLGLAQKLMDQASRAMIENFSAKYVSLHVRKSNRAALHLYSNTLNFQVSEVEPKYYADGEDAYAMKRDLSQMADELRRQLVLKKGRYVVLGSKENQGSTLPGSEEASQQENLAGGDSGSDGKDSTDVQDSLQTLGSAS
protein production: failed

MGNPADQKDSKAKQKTEVFPVTIDDASNQDVTIKKEPKKIVSLMPSNTEITYALGLGDKVVGVTTNDTYPKEVKKVEKVGDMNVNVEKVISLKPDLVLAHESSMSASADAIKQLKDAGITVLTVNDAQSFSEVYKSIEMIGEAGGAEKKADQLVKSMKSDLKDIQEKAKTISKDEEKSVFIEVSPDPDIYTTGKDTFMNEMLNVIHAKNAAADQTGWVQMTDEAIVKLNPDAIVTTDGVKAKAVEKRDGWSEINAVKHHRVYDVDPDLVTRSGPRLIEGVEELAESIYPDTFKE
protein production: failed

MALGFGMKMELQQFLDALASSPEKIEFETTMAVIEDNYDFTPAAFTNGNTQNDANENNGSCKIFAFGLLNALDKEATLACFGRFYREDVLLHPENNDHQNIRNFMVTGWEGIQFETSALTAK
protein production: not failed

MLQAGTKKFLREYGSTCAPLFLALGVCLICCLPAACPKENFIDENAISVSRVPVITGMLGELHMDTRISQYTRVVRGRRSVGSESIAVYVNAAFESSVVLANHLIYVLREKENMACDTNFYFFNDTSKDWPIPDSFVRAAIVINVTSFHTNNLCFNVFGANGMQPNQDLFNLAVAIAEKWRFNIDVLCQNPYISFSTSRPIYEHYFLALQTALVAPLRYQPWYKMRSRGISLLAISTEKSERRTKSSYGYNMAAAHEQLIATLSYLHERFHHSTSVWIPLSVDQYVEYDVIQFATILFVASLLSTCYSIYEVEGFSFSPCAALVSATGLAALVSTLNFGTAGFFVSSGVLTVGLGAFSWDMSWGAINAVVLCLLIILQPVAGLVMGFGATLQLQFIHVRCRKWHVLLIGAILSWIVLVALTEVMKAKLFDTETTAGVYFSFFLYPNALWISSRLIRSTLGA
protein production: failed

MVCYNNPMELLMKIIAFSCHLFFIGLSYQLLISVIDWTKFSHYHPENLGRLRLFVFLLATALGYLVSHCMLELLQISQTLFFEFR
protein production: failed

MSGMSAAARWTLIASVIAGVSYVASWGLTLPPGVETAWKGAGVGLLAIHAALRARSLDGWLLAAVMALGTGGDVLLETHGLTVGAISFLLGHVVASGLYLRHRNAVSLAPLALIPVVVAVSFLLPTDRAGAPGIALYSLFLAVMAAMALMSRFPFKTVGLGALMFVVSDLLIFGRLGPLPDNLATGLGVWGLYYFGQLLICLGVAGALAHPSTDLPGEGRGPDSA
protein production: failed

MSLNKQDGENTLQHEKSSSFGYWCSPSPEQLERLSLKQLAAVSNFVIGRRGYGCITFQHDVDLTAFTKSFREELFGKIVIFRSSKTVEVYPDEATKPMIGHGLNVPAIITLENVYPVDKKTKKPMKDTTKFAEFQVFDRKLRSMREMNYISYNPFGGTWTFKVNHFEGHHHHHH
protein production: not failed

DDSLGEAVTTRAEALTIPAVLRARNLLSTTVARTPLVCDGTLPPFVPVAAPPGAATMQTPFHRMLATADDLLFNGVACWALDRDESGTCIGAIHIPLDTWQIEENTVRVNGKAVDPMEVCIFVGIHGGLLTHASETFTDARNLVRAAARVAQNPAALIELRQTNNAQLSPDDVDRIINGYVAARRGRNSGVGFSSSGLEVHEHEMAKENLLIEGRNAAAVDVARAMNVPAAFIDATVGGTSLSYQNAASRMIELVTFGVEPLMSAIEARLNQPDMHADHLANPLKFDPAALLDAIPTTPTIGAQPHGENS
protein production: not failed

FCGRARVHTDFTPSPYDTDSLKLKKGDIIDIISKPPMGTWMGLLNNKVGTFKFIYVDVLS
protein production: not failed

MVTQKQRRLWAFLAALACVMWGISGLFAKSLFNISSDITPMWLSQIRMVTSGIILLIVAGILKQKPIATMKNKHDAWVIIAYGIFGLLPVQLFYFIVVQQANASIATILQFVGPFFVMGYLAFTHKQVMRRIDVIAAIFAFIGVVLLATHGRFNHLAITPSVLFWGLLSAVGVATNTLIPIGVLKRVSSLVVTGWGLLSAGICLMIVHPQMPHIPNTPHVWLDVLAVIVIGTLIPFQLMTNSLRFIKASTASLLDAFEPFSATLGSVLCFGLVMTPMDWIGSILVVLAAMALNISPKKKKGKLDGKSQD
protein production: failed

MKLICYILLILLIPAIPVGAQTLSGGQVQVSNQSILISDNGQVMIGMDITLPAAMELSSNCVATLTPVLKTQDNSYNRILPAIWVYGRIRSIVQQRERSIPSDAYTILRRKNGTEQTVNYSARIPYEKWMNGAELELQAAIRGCADCQKEENSAFITRANLERYVVKPVVAFVSPAVEAVKNRAEEGRAYLDFPVNQMNIYPDYRRNPSELAAIKHTVDVVKNDVNTTITEIAIVGYASPEGRYAANARLAQGRAEALKSYVMNEYGFKADLFKVNSVPEDWAGLRAYVAKNDLPLKEEILSIIDKNESDFDVKEERIKALDGGKVYAALLQDCYPALRHSDYTVRYVVRGFDVEEAKQIIKLRPQQLSLQEMFLVAQTYEKGSDEFNEVFDVAVRMFPDDPTANINAAAIELQRGDLQQAVRYLDKADAQASATLNNRGVLKLLQGDLDSAENYFKQAQAKDSVEAGANLEEVTNKRKDEAIFVK
protein production: failed

MRSHNLFGDMCEAFMTKYVMTELRPKTQTLYKSTFNKYVTPYKNIDIERYKYTDWIAYFDWVKKESSSANAGSVLKRFKAVANWAKARGQIKHSHLIDIPIKLEHHHHHH
protein production: failed

GMKAADFTYVTVHGDNSRMSRLKAQYTMLFFYDPDCSNCRKFEKLFAEIPAFVEMVENGTLRVLAIYPDENREEWATKAVYMPQGWIVGWNKAGDIRTRQLYDIRATPTIYLLDGRKRVILKDTSMEQLIDYLATQAG
protein production: not failed

MPIIKTLTKATKLEKEKFTIPKSVQDAIPIQRIWPDGIFQVGSRFSKTFSFTDINYSIASKDDKTAMFLDYSELLNALDSGASAKITIHNRRIDKAQFEKSLLLPMREDGLDHFRREYNEMLLSKVTGTNNSVVQDRYITITVAKRNIDEARTYFSRVGTDLINHLSQLSSVGRELDAAARLQLFRDFFKGSEPAAFAFDLREHMKKGHSFKDWLCPDSMEFQKDHFRIDERWGRVLYLQDYATYIKDSMIAELCDMDRSLMLAIDVLPVPTDEAVREIQNKLLGVETNAANWQRKQNAANNFSAVLPYDMEQQRKETKEMLDDLTNRDQRMMFGLVTLVHLADTKEQLDSDTETILTVARKHLCQMSTLRWQQKDGLDTVLPYGLRKIHALRTLTTESTAVLIPFRAQEILQGGGIYYGQNAVSKNMIVADRRKLLNGNSFRLGVSGSGKSFSAKEEIVSIALSTDDDILILDPESEFGFLTEALGGEVIRVSASSDTHINALDMDKAYGDERNPLIEKSEFILSLFEQLVGAGGVSAKEKSILDRCTYDVYREYMANNYQGEVPTLKDLYQSLLKQPEPEARGLALSSELFITGSLNTFAQPTNVDTKARIIAYDIRELGEQLMPIGMLVTLDAIFNRVIQNWKKGKTTWVFADEFYLLFRYQYSADFFYKLWKRIRKYNGLVTGLTQNVEELLRSDTARLMLANSEFLILLNQSPTDRDELAGLLHISDTQLGYITNVSAGCGLIRCAGNIVPFENSFPRNTRLYQLMTTKPDEALRGVLEHHHHHH
protein production: failed

FPIPLPYCWLCRALIKRIQAMIPKGALAVAVAQVCRVVPLVAGGICQCLAERYSVILLDTLLGRMLPQLVCRLVLRCSM
protein production: failed
